In patent publication US20030232325A1 (MOUNT SINAI SCHOOL OF MEDICINE OF NEW YORK UNIVERSITY, published 2003):

B1: gstRabM202 (gst fused to amino acids 1-202, full-length, of the rabies virus M protein) (other)
chain: MNLLRKIVKNRRDEDTQKSSPASAPLDDDDLWLPPPEYVPLKELTGKKNMRNFCINGRVKVCSPNGYSFRILRHILKSFDEIYSGNHRMIGLVKVVIGLALSGSPVPEGLNWVYKLRRTFIFQWADSRGPLEGEELEYSQEITWDDDTEFVGLQIRVIAKQCHIQGRVWCINMNPRACQLWSDMSLQTQRSEEDKDSSLLLE
B2: gstRabM52WT (gst fused to amino acids 1-52, wild type, of the rabies virus M protein) (other)
chain: MNLLRKIVKNRRDEDTQKSSPASAPLDDDDLWLPPPEYVPLKELTGKKNMRN
B3: gstVSVM74WT (gst fused to the N-terminal 74 amino acids of VSV (Ind.) M protein, wild type PY motif) (other)
chain: MSSLKKILGLKGKGKKSKKLGIAPPPYEEDTSMEYAPSAPIDKSYFGVDEMDTYDPNQLRYEKFFFTVKMTVRS
B4: WW domain from ESS 1 (other)
chain: TGLPTPWTVRYSKSKKREYFFNPETKHSQWEEPEG
notes: domain: WW
B5: gstRabM69 (gst fused to amino acids 1-69 of the rabies virus M protein) (other)
chain: MNLLRKIVKNRRDEDTQKSSPASAPLDDDDLWLPPPEYVPLKELTGKKNMRNFCINGRVKVCSPNGYSF

How the values were obtained:
[1] = biological target: T1, gst alone (glutathione-S-transferase expressed from pGEX-2TK) (UniProt P08515 1-218 = GST); assay: far-western blot, 32P-labelled gst probe
T1 sequence (P08515 whole entry): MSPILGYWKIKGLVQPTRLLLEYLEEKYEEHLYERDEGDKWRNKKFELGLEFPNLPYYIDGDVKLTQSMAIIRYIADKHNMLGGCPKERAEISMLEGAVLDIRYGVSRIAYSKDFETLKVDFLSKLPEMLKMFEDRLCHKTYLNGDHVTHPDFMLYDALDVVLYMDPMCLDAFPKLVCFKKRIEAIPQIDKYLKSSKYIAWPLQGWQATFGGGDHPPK

[2] = biological target: T1, gst alone (glutathione-S-transferase …); assay: far-western blot, 32P-labelled gst probe on bacterial extract
[3] = biological target: VSV M protein (form used not stated; discussion of Example 9, data not shown) (vesicular stomatitis virus, UniProt P03519 1-229); assay: far-western blot presumably; data not shown

Binder | binding result [1] | other results
B1 | no binding | 
B2 | no binding | 
B3 |  | binding result [2]: no binding
B4 |  | binding result [3]: no binding
B5 | no binding | 
